For assay [1], the target named is T1, human IL4 (human, UniProt P05112).
T1 chain: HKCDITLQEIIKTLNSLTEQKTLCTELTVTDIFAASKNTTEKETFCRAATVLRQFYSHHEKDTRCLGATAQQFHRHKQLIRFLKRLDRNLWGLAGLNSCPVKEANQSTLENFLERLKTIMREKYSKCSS
The experiment in a line: SPR. For orientation: In SPR one partner is held on a chip, and binding of the other changes the refractive index at the surface.

In assay [2] the target is T1, human IL4. The experiment in a line: SPR.

Like-named read-outs stand apart in the source and are kept apart here.

B1: sLC-Tandem-(anti-IL4xanti-IL13)-ΔPCL1-huIgG1, IL4 arm (antibody)
chain 1: not shown
chain 2: DIQMTQSPASLSVSVGDTITLTCHASQNIDVWLSWFQQKPGNIPKLLIYKASNLHTGVPSRFSGSGSGTGFTLTISSLQPEDIATYYCQQAHSYPFTFGGGTKLEIKRTVAAPSVFIFPPSDEQLKSGTASVVCLLNNFYPREAKVQWKVDNALQSGNSQESVTEQDSKDSTYSLSSTLTLSKADYEKHKVYACEVTHQGLSSPVTKSFNRGEC
For the molecule B1, the Kd in assay [1] was determined as 2.29 pM; in assay [2] it was 2.75 pM.

B2: sLC-Tandem-(anti-IL4xanti-IL13)-His8-PCL1-huIgG1 with Furin-KDEL, IL4 arm (antibody)
chain 1: not shown
chain 2: DIQMTQSPASLSVSVGDTITLTCHASQNIDVWLSWFQQKPGNIPKLLIYKASNLHTGVPSRFSGSGSGTGFTLTISSLQPEDIATYYCQQAHSYPFTFGGGTKLEIKRTVAAPSVFIFPPSDEQLKSGTASVVCLLNNFYPREAKVQWKVDNALQSGNSQESVTEQDSKDSTYSLSSTLTLSKADYEKHKVYACEVTHQGLSSPVTKSFNRGEC
In assay [1], B2 returned a Kd of 1.86 pM.

B3: sLC-Tandem-(anti-IL4xanti-IL13)-PCL2-huIgG1, IL4 arm (antibody)
chain 1: not shown
chain 2: DIQMTQSPASLSVSVGDTITLTCHASQNIDVWLSWFQQKPGNIPKLLIYKASNLHTGVPSRFSGSGSGTGFTLTISSLQPEDIATYYCQQAHSYPFTFGGGTKLEIKRTVAAPSVFIFPPSDEQLKSGTASVVCLLNNFYPREAKVQWKVDNALQSGNSQESVTEQDSKDSTYSLSSTLTLSKADYEKHKVYACEVTHQGLSSPVTKSFNRGEC
As to B3, the Kd in assay [1] came out at 1.05 pM; in assay [2], 1.33 pM.

B4: sLC-Tandem-(anti-IL4xanti-IL13)-His8-PCL1-huIgG1 with Furin, IL4 arm (antibody)
chain 1: not shown
chain 2: DIQMTQSPASLSVSVGDTITLTCHASQNIDVWLSWFQQKPGNIPKLLIYKASNLHTGVPSRFSGSGSGTGFTLTISSLQPEDIATYYCQQAHSYPFTFGGGTKLEIKRTVAAPSVFIFPPSDEQLKSGTASVVCLLNNFYPREAKVQWKVDNALQSGNSQESVTEQDSKDSTYSLSSTLTLSKADYEKHKVYACEVTHQGLSSPVTKSFNRGEC
The molecule B4 gave an equilibrium dissociation constant (Kd) in assay [1] of 1.53 pM.

B5: Tandem-(anti-IL4xanti-IL13)-huIgG1, IL4 arm (antibody)
chain 1: not shown
chain 2: DIQMTQSPASLSVSVGDTITLTCHASQNIDVWLSWFQQKPGNIPKLLIYKASNLHTGVPSRFSGSGSGTGFTLTISSLQPEDIATYYCQQAHSYPFTFGGGTKLEIKRTVAAPSVFIFPPSDEQLKSGTASVVCLLNNFYPREAKVQWKVDNALQSGNSQESVTEQDSKDSTYSLSSTLTLSKADYEKHKVYACEVTHQGLSSPVTKSFNRGEC
As to B5, in assay [1], the affinity, expressed as Kd, was 2.32 pM.

B6: sLC-Tandem-(anti-IL4xanti-IL13)-PCL1-huIgG1, IL4 arm (antibody)
chain 1: not shown
chain 2: DIQMTQSPASLSVSVGDTITLTCHASQNIDVWLSWFQQKPGNIPKLLIYKASNLHTGVPSRFSGSGSGTGFTLTISSLQPEDIATYYCQQAHSYPFTFGGGTKLEIKRTVAAPSVFIFPPSDEQLKSGTASVVCLLNNFYPREAKVQWKVDNALQSGNSQESVTEQDSKDSTYSLSSTLTLSKADYEKHKVYACEVTHQGLSSPVTKSFNRGEC
In the case of B6, the results for the Kd in assay [1] and in assay [2] were 0.901 pM and 1.42 pM, respectively.

Broadly, the Kd is the concentration at which binding is half-saturated.

These data come from patent US12723106 (dated 2026).
